Here are results for 2 substances from US7022488.

Assay [1] concerns the target Gs. Kind of assay: cell-based or functional assay.
Assay [2] addresses Gi proteins. The assay can be described thus: cell-based or functional assay.

Substance “human umami taste receptor hT1R1/hT1R3 (from UniProt Q7RTX1 21-841; Q7RTX0 21-852)” gave an increase in cAMP levels after pertussis toxin treatment in assay [1] of 25%.

As for “β-adrenergic receptor (β2AR) (from UniProt P07550 1-413)”, the increase of the isoproterenol cAMP response after pertussis toxin treatment in assay [2] was more than 17 fold.
